Values joined by “and” are separate entries in the source; they are usually repeats but may differ in a detail not shown here. Equal values may be shown once.
Target: nitrogenase MoFe-protein (Azotobacter vinelandii) (UniProt P07328)
Assay: cryo-EM structure; single particle cryoEM of the ADP-AlF4- stabilized complex of the two nitrogenase proteins; grids prepared anaerobically in the vinyl tent; carbon-layered grids

UniProt P07328, sequence (P07328 whole entry, chain 1 of 2): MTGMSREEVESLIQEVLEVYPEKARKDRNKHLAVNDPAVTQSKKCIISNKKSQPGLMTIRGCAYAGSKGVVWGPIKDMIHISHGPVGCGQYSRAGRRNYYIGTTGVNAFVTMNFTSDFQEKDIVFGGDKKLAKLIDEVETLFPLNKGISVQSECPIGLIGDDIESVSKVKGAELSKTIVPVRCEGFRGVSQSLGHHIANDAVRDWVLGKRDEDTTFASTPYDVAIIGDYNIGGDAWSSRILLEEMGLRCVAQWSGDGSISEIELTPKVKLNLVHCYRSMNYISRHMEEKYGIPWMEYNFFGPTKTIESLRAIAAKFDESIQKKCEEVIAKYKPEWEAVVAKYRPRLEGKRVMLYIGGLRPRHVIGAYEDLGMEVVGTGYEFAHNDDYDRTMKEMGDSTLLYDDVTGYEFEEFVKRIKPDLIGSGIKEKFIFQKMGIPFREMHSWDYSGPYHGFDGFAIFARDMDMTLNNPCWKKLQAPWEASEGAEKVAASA
UniProt P07328, sequence (P07329 whole entry, chain 2 of 2, further chain): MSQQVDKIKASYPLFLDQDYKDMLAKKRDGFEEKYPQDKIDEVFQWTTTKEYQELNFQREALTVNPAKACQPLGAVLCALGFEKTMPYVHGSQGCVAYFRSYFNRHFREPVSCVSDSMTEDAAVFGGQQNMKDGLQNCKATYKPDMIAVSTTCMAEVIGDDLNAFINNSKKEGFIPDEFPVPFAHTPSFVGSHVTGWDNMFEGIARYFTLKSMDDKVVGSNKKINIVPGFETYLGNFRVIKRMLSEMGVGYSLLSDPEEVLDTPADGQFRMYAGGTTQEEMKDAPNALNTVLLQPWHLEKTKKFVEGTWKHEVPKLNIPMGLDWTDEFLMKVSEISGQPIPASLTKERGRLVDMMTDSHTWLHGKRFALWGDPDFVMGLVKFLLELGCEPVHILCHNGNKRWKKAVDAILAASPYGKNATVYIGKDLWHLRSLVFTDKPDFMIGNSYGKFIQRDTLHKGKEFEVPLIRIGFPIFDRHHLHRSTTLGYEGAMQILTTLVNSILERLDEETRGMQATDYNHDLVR

stoichiometry N (Fe-protein:MoFe-protein): 2 and 1
Substance: nitrogenase Fe-protein (enzyme)

Source: article PMC11528890
